Experimental findings from PMC5612953, “Stable MOB1 interaction with Hippo/MST is not essential for development and tissue growth control” (Nature Communications, 2017) are described below.

Sequences and labels used below:
T1: human NDR2 (residues 25-88), N-terminal regulatory domain (NTR) (human, UniProt Q9Y2H1 25-88)
T1 construct: human NDR2, residues 25-88 (NTR); also called NDR2 (25-88); NTR of NDR2; source: E. coli BL21(DE3), purified (Ni-NTA)
T1 sequence (looked up): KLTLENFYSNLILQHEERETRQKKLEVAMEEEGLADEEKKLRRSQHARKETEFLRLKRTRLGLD

T2: LATS1 (640-703, V647Y) (human, UniProt O95835 640-703, V647Y)
T2 sequence: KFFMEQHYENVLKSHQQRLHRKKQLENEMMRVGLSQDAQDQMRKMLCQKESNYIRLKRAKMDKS

T3: human LATS1 (residues 640-703), NTR (human, UniProt O95835 640-703)
T3 chain: T2 sequence with Y8V

T4: human NDR2 (residues 25-88), N-terminal regulatory domain (NTR) (human, UniProt Q9Y2H1 25-88)
T4 chain: T1 sequence (looked up)

T5: human NDR1 (residues 24-87), NTR (human, UniProt Q15208 24-87)
T5 chain: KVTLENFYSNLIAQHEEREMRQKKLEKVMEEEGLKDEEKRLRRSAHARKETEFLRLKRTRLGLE

T6: human LATS2 (residues 603-666), NTR (human, UniProt Q9NRM7 603-666)
T6 chain: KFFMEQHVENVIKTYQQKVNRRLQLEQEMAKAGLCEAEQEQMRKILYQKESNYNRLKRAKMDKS

T7: LATS2 (603-666, V610Y) (human, UniProt Q9NRM7 603-666, V610Y)
T7 sequence: T6 chain with V8Y

T8: non-phosphorylated full-length MOB1A wild-type (human, UniProt Q9H8S9 1-216)
T8 construct: human MOB1A, full length; pET28a vector; also called unphosphorylated full-length MOB1; non-phosphorylated MOB1; source: E. coli, purified as MOB1A (33-216) (Ni-NTA)
T8 sequence (looked up): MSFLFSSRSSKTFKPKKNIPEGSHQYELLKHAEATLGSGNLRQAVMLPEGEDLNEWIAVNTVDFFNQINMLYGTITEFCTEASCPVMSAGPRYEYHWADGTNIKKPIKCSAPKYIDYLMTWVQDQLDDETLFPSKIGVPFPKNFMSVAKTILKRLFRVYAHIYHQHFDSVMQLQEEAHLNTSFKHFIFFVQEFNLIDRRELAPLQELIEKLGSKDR

T9: unphosphorylated full-length MOB1A(K104E/K105E), recombinant (human, UniProt Q9H8S9 1-216, K104E | K105E)
T9 construct: human MOB1A, full length; also called Unphosphorylated MOB1(K104E/K105E); MOB1(K104E/K104E); source: E. coli, purified as MOB1A (33-216) (Ni-NTA)
T9 sequence (looked up): T8 sequence (looked up) with K104E, K105E

T10: phospho-MOB1(K104E/K105E), full length, recombinant (human, UniProt Q9H8S9 1-216, K104E | K105E, phosphorylated in vitro by MST2 (residues 2-308); the paper names Thr12 and Thr35 as the MST1/2 phosphorylation sites of MOB1)
T10 construct: human MOB1A, full length; source: E. coli, purified (Ni-NTA), then phosphorylated in vitro by MST2 (2-308)
T10 sequence (looked up): T8 sequence (looked up) with K104E, K105E

T11: unphosphorylated full-length MOB1A(K104E/K105E), recombinant (human, UniProt Q9H8S9 1-216, K104E | K105E)
T11 sequence: T8 sequence (looked up) with K104E, K105E

T12: phospho-MOB1(K104E/K105E), full length, recombinant (human, UniProt Q9H8S9 1-216, K104E | K105E, phosphorylated in vitro by MST2 (residues 2-308); the paper names Thr12 and Thr35 as the MST1/2 phosphorylation sites of MOB1)
T12 sequence: T8 sequence (looked up) with K104E, K105E

B1: MST2-phosphorylated full-length MOB1A (phospho-MOB1) (natural protein, human, UniProt Q9H8S9 1-216, looked up)
chain: T8 sequence (looked up)
modifications: phosphorylated in vitro by MST2 (residues 2-308); the paper names Thr12 and Thr35 as the MST1/2 phosphorylation sites of MOB1
notes: human MOB1A, full length; the methods describe the phosphorylation reaction for MOB1A (33-216); results and legend call phospho-MOB1 full length; also called MST1/2-phosphorylated full-length MOB1; source: E. coli, purified (Ni-NTA), then phosphorylated in vitro by MST2 (2-308)
B2: non-phosphorylated full-length MOB1A wild-type (natural protein)
chain: T8 sequence (looked up)
B3: LATS1 (640-703, V647Y) (domain or fragment, human, UniProt O95835 640-703, looked up)
chain: T2 sequence
notes: human LATS1, residues 640-703 (NTR); also called LATS1(V647Y); source: E. coli BL21(DE3), purified (Ni-NTA)
B4: LATS2 (603-666, V610Y) (domain or fragment, human, UniProt Q9NRM7 603-666, looked up)
chain: T6 chain with V8Y
notes: human LATS2, residues 603-666 (NTR), codon-optimized synthetic gene; also called LATS2(V610Y); source: E. coli BL21(DE3), purified (Ni-NTA)
B5: human NDR1 (residues 24-87), NTR (domain or fragment, UniProt Q15208 24-87, looked up)
chain: T5 chain
notes: human NDR1, residues 24-87 (NTR); also called NTR of NDR1; source: E. coli BL21(DE3), purified (Ni-NTA)
B6: human LATS2 (residues 603-666), NTR (domain or fragment, UniProt Q9NRM7 603-666, looked up)
chain: T6 chain
notes: human LATS2, residues 603-666 (NTR), codon-optimized synthetic gene; also called NTR of LATS2; source: E. coli BL21(DE3), purified (Ni-NTA)
B7: human LATS1 (residues 640-703), NTR (domain or fragment, UniProt O95835 640-703, looked up)
chain: T2 sequence with Y8V
notes: human LATS1, residues 640-703 (NTR); also called LATS1 (640-703); LATS1 wild-type; source: E. coli BL21(DE3), purified (Ni-NTA)
B8: NDR2 (25-88, Y32V) (domain or fragment)
chain: T1 sequence (looked up) with Y8V
B9: NDR1 (24-87, Y31V) (domain or fragment)
chain: T5 chain with Y8V

Residue numbers refer to the chain shown, from its start. Numbers in names are those of the source. Where only a bound is given, the exact number is not on record here.

The target of experiment [1] is B5. The experiment in a line: ITC; 25 °C, ITC200; 25 mM HEPES pH 7.5, 200 mM NaCl, 1 mM EDTA; ~240 μM MOB1A injected (20 x 2 μl) into ~24 μM NDR1, NDR2, LATS1 or LATS2 fragment in the cell; single-site model. To be noted: both partners purified.
Experiment [2] deals with T1, human NDR2 (residues 25-88), N-terminal …. Described as above. The following applies: both partners purified.
Experiment [3] concerns the target B3. The experiment is described as above. The following applies: both partners purified.
For experiment [4], the target named is B4. The description is as above. The following applies: both partners purified.
Experiment [5] concerns the target T2, LATS1 (640-703, V647Y). Put plainly: ITC; MOB1 phosphorylated by MST2.
Experiment [6] addresses T3, human LATS1 (residues 640-703), NTR. The experiment in a line: ITC; MOB1 phosphorylated by MST2. Background: Isothermal titration calorimetry measures the heat released or taken up as one component is titrated into another.
The experiment “NDR2 (25-88, Y32V)” deals with B8. The experiment in a line: ITC; MOB1 phosphorylated by MST2.
Experiment [7] has as its target T4, human NDR2 (residues 25-88), N-terminal …. The experiment in a line: ITC.
In experiment [8] the target is B9. The experiment in a line: ITC; 25 °C, ITC200; 25 mM HEPES pH 7.5, 200 mM NaCl, 1 mM EDTA; ~240 μM MOB1A injected (20 x 2 μl) into ~24 μM NDR1, NDR2, LATS1 or LATS2 fragment in the cell; single-site model.
Experiment [9] deals with T5, human NDR1 (residues 24-87), NTR. The experiment in a line: ITC; MOB1 phosphorylated by MST2.
In experiment [10] the target is B9. The experiment in a line: ITC; MOB1 phosphorylated by MST2.
Experiment [11] addresses T6, human LATS2 (residues 603-666), NTR. Put plainly: ITC; MOB1 phosphorylated by MST2.
Experiment [12] concerns the target T7, LATS2 (603-666, V610Y). Put plainly: ITC; MOB1 phosphorylated by MST2.
For experiment [13], the target named is T5, human NDR1 (residues 24-87), NTR. The experiment in a line: ITC.
The target of experiment [14] is T7, LATS2 (603-666, V610Y). Put plainly: ITC.
The target of experiment [15] is T2, LATS1 (640-703, V647Y). Put plainly: ITC.
Experiment [16] addresses T8, non-phosphorylated full-length MOB1A …. The experiment in a line: ITC; 25 °C, ITC200; 25 mM HEPES pH 7.5, 200 mM NaCl, 1 mM EDTA; ~240 μM MOB1A injected (20 x 2 μl) into ~24 μM NDR1, NDR2, LATS1 or LATS2 fragment in the cell; single-site model. To be noted: both partners purified.
Experiment [17] concerns the target T9, unphosphorylated full-length …. Described as above. To be noted: both partners purified.
Experiment [18] has as its target T10, phospho-MOB1(K104E/K105E), full length, …. The experiment is described as above. To be noted: both partners purified.
Experiment [19] concerns the target T11, unphosphorylated full-length …. The experiment in a line: ITC.
In experiment [20] the target is T12, phospho-MOB1(K104E/K105E), full length, …. Put plainly: ITC; phosphorylated MOB1.

A word on the Kd: it is a measure of binding affinity in units of concentration. Consider B1, for which the “fold increase in affinity against LATS1 or LATS2” value in experiment [1] and in experiment [2] was at least 15 fold each time. The “fold increase in affinity against wild-type LATS1” value in the experiment with LATS1 (640-703, V647Y) [3] was 5 fold. Also, in the experiment with LATS2 (603-666, V610Y) [4], the “fold increase in affinity against wild-type LATS2” value was 5 fold. The equilibrium dissociation constant (Kd) with LATS1 (640-703, V647Y) [5] stood at 4.42 µM; in [6], 19.6 µM; with NDR2 (25-88, Y32V), 9.9 µM; in experiment [7], 0.578 µM; in experiment [9], 0.136 µM; in the experiment with NDR1 (24-87, Y31V) [10], 2.82 µM. Besides, the Kd in [11] came to 8.93 µM; in the experiment with LATS2 (603-666, V610Y) [12], 1.54 µM. This molecule registered a fold decrease in affinity against wild-type NDR1 with NDR1 (24-87, Y31V) [8] of 20 fold.

B2: the Kd came to 8.06 µM in experiment [13]; 11.5 µM with LATS2 (603-666, V610Y) [14]; 12.3 µM in [7]; 16.9 µM with LATS1 (640-703, V647Y) [15].

Take B3: the binding result in experiment [16], in experiment [17] and in experiment [18] was “binds” throughout. For the same molecule, the results for the Kd in experiment [19] and in [20] were 14.1 µM and 3.83 µM, respectively.

In the case of B4, the binding result in [16], in experiment [17] and in experiment [18] was “binds” in each case. Also, the Kd in experiment [19] stood at 12.2 µM; in experiment [20] it was 1.3 µM.

As for B5, the binding result in experiment [16], in experiment [17] and in experiment [18] was “binds” in each case. For the same molecule, the equilibrium dissociation constant (Kd) in [19] is 7.94 µM; in experiment [20], 0.124 µM.

Consider B6, for which the binding result in [18] is reported as “binds”. Further, the dissociation constant (Kd) in [20] amounted to 8.4 µM.

For B7, the binding result in [18] is “binds”. The equilibrium dissociation constant (Kd) in experiment [20] amounted to 16.2 µM.

For the molecule B8, the dissociation constant Kd in experiment [20] was 8.7 µM.

Consider B9, for which the Kd in [20] turned out to be 2.34 µM.
